Data reported in patent US20150064217A1, “PLURIPOTENT GERM LAYER ORIGIN ANTIGEN PRESENTING CANCER VACCINE” (CALIFORNIA STEM CELL, INC., priority 2012, published 2015).

Legend:
SK-5-Mel cells = assay: MHC class II (HLA-DR) expression by flow cytometry with autophagy inhibitor; type: cell-based; conditions: autophagy inhibitor together with interferon-gamma
Protocol: The cells were then harvested and assayed for apoptosis and MHC class II (HLA-DR) expression by flow cytometry.
(§1) The methodology of the study was as follows. Autologous and model melanoma tumor cell lines were incubated with 1000 IU/mL of IFN-gamma for 72 hours prior to assaying for autophagy, apoptosis and MHC class II expression. Autophagy was detected by immunobloting with antibodies against LC3 II and by flow cytometry with Enzo's CytoID® Autophagy Detection Kit. Apoptosis and MHC class II induction were assayed by flow cytometry using 7-AAD and annexin-V staining and antibodies against MHC class II, respectively. 7-AAD intercalates in dsDNA. 7-AAD is excluded by viable cells, and thus it can be used to detect dead cells.
Analysis of tumor cell death and changes in major histocompatibility class II expression in response to IFN-gamma were conducted by use of antibodies directed against MHC class II, annexin-V and 7-amino-actinomycin D (7-AAD) and acquired on a Beckton-Dickenson FACS Calibur® flow cytometer.
(§2) What was investigated was the induction of autophagy, apoptosis and MHC class II molecules after IFN-gamma treatment of melanoma tumor cells in vitro. […] Autophagy was detected by immunobloting with antibodies against LC3 II and by flow cytometry with Enzo's CytoID Autophagy Detection Kit. […]

melanoma cell lines [1] = assay: Apoptosis and autophagy induction in melanoma cell lines (7-AAD, annexin-V, LC3 II); type: cell-based
Protocol: as §1
Analysis of tumor cell death and changes in major histocompatibility class II expression in response to IFN-gamma were conducted by use of antibodies directed against MHC class II, annexin-V and 7-amino-actinomycin D (7-AAD) and acquired on a Beckton-Dickenson FACS Calibur® flow cytometer. […]
as §2

Colon tumor cell line = assay: Response to interferon-gamma by flow cytometry, colon tumor cell line; type: cell-based; conditions: Sample A, interferon-gamma 72 hours
From the text: (§3) Pure tumor cells were generated from colon, ovarian, glioblastoma, and renal cell carcinoma according to Dillman and Comforth, et al. (Cornforth, et al. (2011) Cancer Immunol. Immunother. 60:123-131; Dillman, et al. (1993) J. Immunother. Emphasis Tumor Immunol. 14:65-69; Dillman, et al. (2000) Cancer Biother. Radiopharm. 15:161-168; Dillman, et al. (1999) 14:443-449; Dillman et al. (2000) 15:161-168).
(§4) Briefly, tumor biopsies from surgical samples were enzymatically processed into single cell suspensions and purified cell lines generated by differential attachment and serum starvation. The cell lines generated were cryopreserved in liquid nitrogen, thawed and treated with or without interferon-gamma in 5% fetal bovine serum/RPMI media for 72 hours. After exposure to interferon-gamma, the non-adherent cells were analyzed separately from the adherent cells by flow-cytometry. The markers investigated were MHC class I, MHC class II, Annexin V (apoptosis), and 7-ADD (viability).

melanoma cell lines [2] = assay: Immunohistochemistry of tumor associated antigens in melanoma cell lines with or without IFN-gamma; type: cell-based, human; conditions: share of melanoma cell lines; 1000 IU/mL IFN-gamma, 72 hours; N = 27 samples
Protocol: Expression of a panel antigens by melanoma lines were determined using immunocytochemical procedure. Cells were cultured in 8-chamber culture slides (Thermo Fisher, Rochester, N.Y.) in the presence or absence of 1000 IU/mL IFN-gamma. After 72 hours, the cells were washed 3 times with 1× Phosphate Buffered Saline (PBS) and fixed in cold acetone. After blocking endogenous peroxidase, cells were incubated with appropriate primary antibodies against the antigens listed. Immunohistochemistry was performed using biotinylated anitmouse or rabbit immunoglobulins, Super Sensitive enzyme-conjugated streptavidin labeling and horse radish peroxidase chromogen, and substrate kits (Biogenex, San Ramon, Calif.). The reactivity of the following anti-human polyclonal or monoclonal antibodies was investigated with isotype matched control antibody: S-100 and HMB-45 (Biogenex, San Ramon, Calif.), Mel-2, Mel-5, Mart-1 (Signet, Dedham, Mass.), Tyrosinase and Mage-1 (Thermo Scientific, Fremont, Calif.), Melan-A, HLA-class I and HLA-class II (Dako, Denmark).

[3] = system: autologous melanoma tumor cells; assay: Immunoblotting of melanoma cell lysates; type: cell-based, human; conditions: cells incubated with IFN-gamma
Protocol: Cytoplasmic cell lysates were prepared with Mammalian Protein Extraction Reagent (Thermo Scientific, Rockford, Ill.) plus protease inhibitor cocktail (Roche, Indianapolis, Ind.) at 10,000 cells/uL on ice. Approximately 25 uLs/lane of cell lysates were separated on 12.5% tris-glycine gels, transferred to PVDF membrane and probed with antibodies against the following: calreticulin (MBL, Woburn, Mass.), Hsp-60, Hsp-70, Hsp-90 (R&D Systems, Minneapolis, Minn.), HMBG-1 (Cell Signaling, Danvers, Mass.), ICAM-1 (Santa Cruz Biotech, Santa Cruz, Calif.), Mel-4, Mart-1 (Signet, Emeryville, Calif.), tyrosinase (Upstate, Lake Placid, N.Y.) and GADPH (Calbiochem, Darmstadt, Germany).

Ovarian tumor cell line = assay: Response to interferon-gamma by flow cytometry, ovarian tumor cell line; type: cell-based; conditions: Sample B, interferon-gamma 72 hours
From the text: as §3, §4

[4] = system: Renal Cell Carcinoma tumor cell line; assay: Response to interferon-gamma by flow cytometry, renal cell carcinoma cell line; type: cell-based; conditions: Sample D, interferon-gamma 72 hours
From the text: as §3, §4

[5] = system: autologous melanoma cells; assay: Flow cytometry for MHC class I and class II on autologous melanoma cells; type: cell-based, human; conditions: in response to IFN-gamma treatment
Protocol: FIGS. 2A-D show characterization of IFN-gamma treated autologous tumor cells used for loading dendritic cells. Autologous melanoma tumor cells were treated with or without 1000 IU/mL IFN-gamma for 72 hours in 15% FBS/ECS in RPMI, harvested and irradiated with 100 Gy and cryopreserved. Cells were then thawed in AIMV and a sample taken for flow cytometry and for preparation of cell lysates for immunoblotting prior to antigen loading of DCs. An example of four separate autologous melanoma cell lines is shown (FIG. 2A, FIG. 2B and FIG. 2C). Induction major histocompatibility complexes by IFN-gamma treatment of autologous tumor cells (FIG. 2D). Tumor cells were harvested after being treated with or without 1000 IU/mL IFN-gamma for 72 hours and then assayed for MHC class I and class II. Control isotype antibodies were used to identify positive populations. Dark data points indicate median mean fluorescent plus/minus 95% confidence interval. N=65. After irradiation, melanoma cells are checked by assays to ensure that there is not any mitosis. […]

[6] = system: Glioblastoma tumor cell line; assay: Response to interferon-gamma by flow cytometry, glioblastoma cell line; type: cell-based; conditions: Sample C, interferon-gamma 72 hours
From the text: as §3, §4

Cn1cnc(N)c2ncnc1-2 [3-MA, 3-methyladenine]
MHC class II expression despite treatment with interferon-gamma (SK-5-Mel cells): loss of MHC class II expression

carbobenzoxy-valyl-alanyl-aspartyl-[O-methyl]-fluoromethylketone [Z-VAD, reference compound]
apoptosis in IFN-gamma treated cells (melanoma cell lines [1]; pan caspase inhibitor with IFN-gamma): prevents apoptosis

B1: interferon-gamma (protein, UniProt P01579 24-161, looked up)
Interferon gamma: QDPYVKEAENLKKYFNAGHSDVADNGTLFLGILKNWKEESDRKIMQSQIVSFYFKLFKNFKDDQSIQKSVETIKEDMNVKFFNSNKKKRDDFEKLTNYSVTDLNVQRKAIHELIQVMAELSPAAKTGKRKRSQMLFRG
notes: type II interferon (InterMune, Brisbane, Calif.) used to treat tumor cells in vitro
Induction of MHC class I (Colon tumor cell line): Yes
Induction of MHC class II (Colon tumor cell line): Yes
Induction of apoptosis (Colon tumor cell line): No
Induction of autophagy (Colon tumor cell line): Yes
HMB-45 expression: Change after IFN-gamma treatment, Down (melanoma cell lines [2]): 45/5
HMB-45 expression: Change after IFN-gamma treatment, None (melanoma cell lines [2]): 54.5%
MAGE-1 expression: Change after IFN-gamma treatment, Down (melanoma cell lines [2]): 61.5%
MAGE-1 expression: Change after IFN-gamma treatment, None (melanoma cell lines [2]): 38.5%
MART-1 expression: Change after IFN-gamma treatment, Down (melanoma cell lines [2]): 85.2%
MART-1 expression: Change after IFN-gamma treatment, None (melanoma cell lines [2]): 14.8%
Mel-2 expression: Change after IFN-gamma treatment, Down (melanoma cell lines [2]): 53.8%
Mel-2 expression: Change after IFN-gamma treatment, None (melanoma cell lines [2]): 46.2%
Mel-5 expression: Change after IFN-gamma treatment, Down (melanoma cell lines [2]): 27.3%
Mel-5 expression: Change after IFN-gamma treatment, None (melanoma cell lines [2]): 72.7%
Melan-A expression: Change after IFN-gamma treatment, Down (melanoma cell lines [2]): 70.8%
Melan-A expression: Change after IFN-gamma treatment, None (melanoma cell lines [2]): 29.2%
S-100 expression: Change after IFN-gamma treatment, Down (melanoma cell lines [2]): 57.1%
S-100 expression: Change after IFN-gamma treatment, None (melanoma cell lines [2]): 42.9%
Tyrosinase expression: Change after IFN-gamma treatment, Down (melanoma cell lines [2]): 60.0%
Tyrosinase expression: Change after IFN-gamma treatment, None (melanoma cell lines [2]): 40.0%
ICAM-1, immunoblot [3]: significantly up-regulated
calreticulin and high-mobility group box-1 protein (HMGB-1), immunoblot [3]: up-regulated in some cases
common melanoma antigens (mel-4, Mart-1 and tyrosinase), immunoblot [3]: down regulated
Induction of MHC class I (Ovarian tumor cell line): Yes
Induction of MHC class II (Ovarian tumor cell line): Yes
Induction of apoptosis (Ovarian tumor cell line): No
Induction of autophagy (Ovarian tumor cell line): Yes
Induction of MHC class I [4]: No
Induction of MHC class II [4]: Yes
Induction of apoptosis [4]: Yes
Induction of autophagy [4]: Yes
cases with MHC class II induction greater than two fold [5]: 70%
Induction of MHC class I [6]: No
Induction of MHC class II [6]: Yes
Induction of apoptosis [6]: Yes
Induction of autophagy [6]: Yes
induction of autophagic and apoptotic cell populations (melanoma cell lines [1]; 1000 IU/mL IFN-gamma, 72 hours): induces both autophagic and apoptotic cell populations
